B1: human CD6 fused to EGFP [human] / T cell-specific adaptor protein (TSAd), endogenous [human (endogenous in Jurkat)] (parent)
chain 1: not shown
chain 2: HPSPAPPDQLNTSSAESELWEPGERLPVRLTNGSSSCSGTVEVRLEASWEPACGALWDSRAAEAVCRALGCGGAEAASQLAPPTPELPPPPAAGNTSVAANATLAGAPALLCSGAEWRLCEVVEHACRSDGRRARVTCAENRALRLVDGGGACAGRVEMLEHGEWGSVCDDTWDLEDAHVVCRQLGCGWAVQALPGLHFTPGRGPIHRDQVNCSGAEAYLWDCPGLPGQHYCGHKEDAGAVCSEHQSWRLTGGADRCEGQVEVHFRGVWNTVCDSEWYPSEAKVLCQSLGCGTAVERPKGLPHSLSGRMYYSCNGEELTLSNCSWRFNNSNLCSQSLAARVLCSASRSLHNLSTPEVPASVQTVTIESSVTVKIENKESRELMLLIPSIVLGILLLGSLIFIAFILLRIKGKYALPVMVNHQHLPTTIPAGSNSYQPVPITIPKEVFMLPIQVQAPPPEDSDSGSDSDYEHYDFSAQPPVALTTFYNSQRHRVTDEEVQQSRFQMPPLEEGLEELHASHIPTANPGHCITDPPSLGPQYHPRSNSESSTSSGEDYCNSPKSKLPPWNPQVFSSERSSFLEQPPNLELAGTQPAFSAGPPADDSSSTSSGEWYQNFQPPPQPPSEEQFGCPGSPSPQPDSTDNDDYDDISAA
B2: human CD6 fused to EGFP [human] / GRB2-related adaptor downstream of Shc (GADS), endogenous [human (endogenous in Jurkat)] (parent)
chain 1: MEAVAKFDFTASGEDELSFHTGDVLKILSNQEEWFKAELGSQEGYVPKNFIDIQFPKWFHEGLSRHQAENLLMGKEVGFFIIRASQSSPGDFSISVRHEDDVQHFKVMRDNKGNYFLWTEKFPSLNKLVDYYRTNSISRQKQIFLRDRTREDQGHRGNSLDRRSQGGPHLSGAVGEEIRPSMNRKLSDHPPTLPLQQHQHQPQPPQYAPAPQQLQQPPQQRYLQHHHFHQERRGGSLDINDGHCGTGLGSEMNAALMHRRHTDPVQLQAAGRVRWARALYDFEALEDDELGFHSGEVVEVLDSSNPSWWTGRLHNKLGLFPANYVAPMTR
chain 2: B1 chain 2
B3: human CD6 fused to EGFP [human] / SH2 domain-containing leukocyte molecule of 76 kDa (SLP-76), endogenous [human (endogenous in Jurkat)] (parent)
chain 1: MALRNVPFRSEVLGWDPDSLADYFKKLNYKDCEKAVKKYHIDGARFLNLTENDIQKFPKLRVPILSKLSQEINKNEERRSIFTRKPQVPRFPEETESHEEDNGGWSSFEEDDYESPNDDQDGEDDGDYESPNEEEEAPVEDDADYEPPPSNDEEALQNSILPAKPFPNSNSMYIDRPPSGKTPQQPPVPPQRPMAALPPPPAGRNHSPLPPPQTNHEEPSRSRNHKTAKLPAPSIDRSTKPPLDRSLAPFDREPFTLGKKPPFSDKPSIPAGRSLGEHLPKIQKPPLPPTTERHERSSPLPGKKPPVPKHGWGPDRRENDEDDVHQRPLPQPALLPMSSNTFPSRSTKPSPMNPLPSSHMPGAFSESNSSFPQSASLPPYFSQGPSNRPPIRAEGRNFPLPLPNKPRPPSPAEEENSLNEEWYVSYITRPEAEAALRKINQDGTFLVRDSSKKTTTNPYVLMVLYKDKVYNIQIRYQKESQVYLLGTGLRGKEDFLSVSDIIDYFRKMPLLLIDGKNRGSRYQCTLTHAAGYP
chain 2: B1 chain 2

Variants of: B1
Test: co-immunoprecipitation (anti-CD6 IP), Western blot densitometry
Conditions: with T cell-specific adaptor protein (TSAd), Jurkat cells, 3 × 10^6 cells per sample, pervanadate treated, CD6 MAb (MEM-98), three experiments, read off a plot

Q: For chain 2 Y612F, which response is on record?
A: The response was 8.8 AU.

Q: For chain 2 Y612F Y645F, which response is on record?
A: The response was 4.4 AU.

Q: With chain 2 Y645F as the variant, how does the response read?
A: Its response is 5.2 AU.

Variants of: B2
Test: as above
Conditions: with GRB2-related adaptor downstream of Shc (GADS), Jurkat cells, 3 × 10^6 cells per sample, pervanadate treated, CD6 MAb (MEM-98), three experiments, read off a plot

Q: For chain 2 Y645F, which response is on record?
A: Its response is 9.1 AU.

Q: chain 2 Y612F was tested. Which response did it give?
A: The response was 10 AU.

Q: With chain 2 Y612F Y645F as the variant, how does the response read?
A: The response was 0.9 AU.

Variants of: B3
Test: as above
Conditions: with SH2 domain-containing leukocyte molecule of 76 kDa (SLP-76), Jurkat cells, 3 × 10^6 cells per sample, pervanadate treated, CD6 MAb (MEM-98), three experiments, read off a plot

Q: With chain 2 Y612F Y645F as the variant, how does the response read?
A: Its response is 0.5 AU.

Q: chain 2 Y612F was tested. Which response did it give?
A: Its response is 6.4 AU.

Q: With chain 2 Y645F as the variant, how does the response read?
A: The response was 1.5 AU.

Reference: article PMC5440646, “T Cell Costimulation by CD6 Is Dependent on Bivalent Binding of a GADS/SLP-76 Complex” (Molecular and Cellular Biology, 2017)
